The record followed here is the supplement of paper PMC7125110.

First the molecules themselves.
B1: glmS ribozyme (parent)
chain: AUAAAAGCGCCAGAACUACAGAAAUGUAGUUGACGAGGAGGAGGUUUAUCGAAUUUUCGGCGGAUGCCUCCAAA

± gives the standard error. For some assays here: Variants at the floor of the assay were thinned out. Bounds are passed on as bounds.

Holding throughout (details): with glucosamine-6-phosphate
Variants of B1 are the subject of data set [1]. The data set can be described thus: kcat; higher = faster cleavage; RNA array. An outline of the steps: (§1)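 kobs was derived by fitting per-tile medians to one- or two-exponential decays after normalising signals to baseline and to non-cleaving reference variants. Those signals came from barcoded ribozyme variants transcribed in situ by E. coli RNA polymerase on sequenced MiSeq chips, followed through a hybridised Cy3 probe at 37 °C and imaged over ~14 h. Glucosamine-6-phosphate (40 μM to 10 mM) in HEPES/KCl/Mg(OAc)2 buffer was flowed in. Weighted Michaelis–Menten fits across concentrations then gave kcat and KM.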

In data set [2] the parent is B1. Nature of the data set: KM; higher = weaker cofactor use; RNA array. An outline of the steps:
as §1

In data set [3] the parent is B1. The data set can be described thus: self-cleavage kobs at 40 uM GlcN6P; higher = faster cleavage; RNA array. An outline of the steps: as §1
In data set [4] the parent is B1. The data set can be described thus: self-cleavage kobs at 640 uM GlcN6P; higher = faster cleavage; RNA array. The method in brief:
as §1

Data set [5] covers variants of B1. The data set can be described thus: self-cleavage kobs at 2500 uM GlcN6P; higher = faster cleavage; RNA array. The method in brief:
as §1

Variants of B1 are the subject of data set [6]. The data set can be described thus: self-cleavage kobs at 10000 uM GlcN6P; higher = faster cleavage; RNA array. An outline of the steps:
as §1

Data set [7] covers variants of B1. The data set can be described thus: self-cleavage kobs at 160 uM GlcN6P; higher = faster cleavage; RNA array. The method in brief: as §1

Usually kcat stands for the number of substrate molecules converted per active site and unit of time at saturation. For orientation: KM means the substrate concentration at which the rate is half of its maximum. With C16A U56C, the kcat in data set [1] worked out at 0.000253 ± 8.5e-06 s⁻¹. Moreover, the Michaelis constant (KM) in data set [2] was 1940 ± 160 µM. For the same variant, in data set [3], the “self-cleavage kobs at 40 uM GlcN6P” value was less than 1e-05 s⁻¹. Also, the “self-cleavage kobs at 640 uM GlcN6P” value in data set [4] turned out to be 6.38e-05 ± 1.8e-05 s⁻¹. Besides, the “self-cleavage kobs at 2500 uM GlcN6P” value in data set [5] was determined as 0.000144 ± 3.2e-05 s⁻¹. Moreover, the “self-cleavage kobs at 10000 uM GlcN6P” value in data set [6] stood at 0.000211 ± 3.4e-05 s⁻¹.
Consider U54A A64U, for which, in data set [1], the catalytic constant (kcat) turned out to be 0.000124 ± 1.2e-05 s⁻¹. The “self-cleavage kobs at 640 uM GlcN6P” value in data set [4] came out at 7.79e-05 ± 2.6e-05 s⁻¹. Also, the “self-cleavage kobs at 2500 uM GlcN6P” value in data set [5] was determined as 7.51e-05 ± 2.5e-05 s⁻¹. Besides, the “self-cleavage kobs at 10000 uM GlcN6P” value in data set [6] was 0.00012 ± 1.1e-05 s⁻¹.
Take G37U C71G: in data set [1], the kcat was determined as 1.72e-05 ± 4.2e-06 s⁻¹.
As for C8A G37C, in data set [1], the kcat was less than 1e-05 s⁻¹. The “self-cleavage kobs at 160 uM GlcN6P” value in data set [7] was less than 1e-05 s⁻¹. In data set [4], the “self-cleavage kobs at 640 uM GlcN6P” value was less than 1e-05 s⁻¹.
In the case of G32A G59A C68U, the kcat in data set [1] is 1.04e-05 ± 2.4e-06 s⁻¹.
Consider C16U C58G, for which, in data set [1], the kcat amounted to 0.000176 ± 1.3e-05 s⁻¹. In addition, the Michaelis-Menten constant (KM) in data set [2] stood at 1730 ± 350 µM. Moreover, the “self-cleavage kobs at 640 uM GlcN6P” value in data set [4] was found to be 4.29e-05 ± 9.1e-06 s⁻¹. The “self-cleavage kobs at 2500 uM GlcN6P” value in data set [5] was determined as 0.000117 ± 1.6e-05 s⁻¹. The “self-cleavage kobs at 10000 uM GlcN6P” value in data set [6] is 0.000146 ± 1.3e-05 s⁻¹.
With A39U C50A, the kcat in data set [1] came to 1.72e-05 ± 1.5e-06 s⁻¹. Moreover, the “self-cleavage kobs at 160 uM GlcN6P” value in data set [7] is less than 1e-05 s⁻¹.
With G41C U55C, the kcat in data set [1] was found to be 0.000176 ± 4.4e-05 s⁻¹. Moreover, in data set [5], the “self-cleavage kobs at 2500 uM GlcN6P” value amounted to 0.00012 ± 3.6e-05 s⁻¹. In data set [6], the “self-cleavage kobs at 10000 uM GlcN6P” value amounted to 0.000129 ± 3.9e-05 s⁻¹.
In the case of G66U C71G, the kcat in data set [1] is 8.21e-05 ± 2.6e-06 s⁻¹. Moreover, the Michaelis constant (KM) in data set [2] was 2320 ± 240 µM. In addition, the “self-cleavage kobs at 2500 uM GlcN6P” value in data set [5] was determined as 4.34e-05 ± 1.2e-05 s⁻¹. For the same variant, the “self-cleavage kobs at 10000 uM GlcN6P” value in data set [6] came to 6.65e-05 ± 1.1e-05 s⁻¹.
As to U54G A64C, the turnover number (kcat) in data set [1] was found to be 0.000177 ± 1.8e-05 s⁻¹. Also, the Michaelis-Menten constant (KM) in data set [2] stood at 2030 ± 590 µM. Also, the “self-cleavage kobs at 40 uM GlcN6P” value in data set [3] was less than 1e-05 s⁻¹. In addition, the “self-cleavage kobs at 640 uM GlcN6P” value in data set [4] was found to be 3.56e-05 ± 1.3e-05 s⁻¹. The “self-cleavage kobs at 2500 uM GlcN6P” value in data set [5] was 0.000116 ± 2.4e-05 s⁻¹. In addition, the “self-cleavage kobs at 10000 uM GlcN6P” value in data set [6] stood at 0.000143 ± 1.8e-05 s⁻¹.
For C58G G66A, the kcat in data set [1] stood at 5.59e-05 ± 5.7e-06 s⁻¹. For the same variant, the “self-cleavage kobs at 2500 uM GlcN6P” value in data set [5] came out at 5.32e-05 ± 1.5e-05 s⁻¹. Besides, in data set [6], the “self-cleavage kobs at 10000 uM GlcN6P” value came out at 5.1e-05 ± 7.9e-06 s⁻¹.
As to U55A U65G, in data set [1], the kcat stood at 0.00556 ± 0.0024 s⁻¹. For the same variant, the “self-cleavage kobs at 40 uM GlcN6P” value in data set [3] came out at 7.69e-05 ± 2.5e-05 s⁻¹. In data set [7], the “self-cleavage kobs at 160 uM GlcN6P” value worked out at 0.000125 ± 4.4e-05 s⁻¹. Also, the “self-cleavage kobs at 640 uM GlcN6P” value in data set [4] was 0.000517 ± 0.0001 s⁻¹. Besides, the “self-cleavage kobs at 2500 uM GlcN6P” value in data set [5] is 0.00303 ± 0.001 s⁻¹. Besides, the “self-cleavage kobs at 10000 uM GlcN6P” value in data set [6] amounted to 0.00343 ± 0.00072 s⁻¹.
In the case of G29U U65A, in data set [1], the kcat came to 0.000516 ± 4.5e-05 s⁻¹. The KM in data set [2] worked out at 2110 ± 340 µM. Besides, the “self-cleavage kobs at 160 uM GlcN6P” value in data set [7] was determined as 3.8e-05 ± 1.4e-05 s⁻¹. Also, the “self-cleavage kobs at 640 uM GlcN6P” value in data set [4] was 0.000114 ± 1.9e-05 s⁻¹. Further, the “self-cleavage kobs at 2500 uM GlcN6P” value in data set [5] came to 0.000323 ± 5.9e-05 s⁻¹. Besides, the “self-cleavage kobs at 10000 uM GlcN6P” value in data set [6] turned out to be 0.000411 ± 6e-05 s⁻¹.
For U49A G66C, the turnover number (kcat) in data set [1] is less than 1e-05 s⁻¹. Further, the “self-cleavage kobs at 640 uM GlcN6P” value in data set [4] is less than 1e-05 s⁻¹.
Take U31G C68U: the catalytic constant (kcat) in data set [1] was found to be 0.00134 ± 0.00023 s⁻¹. Also, the Michaelis constant (KM) in data set [2] was found to be 2020 ± 590 µM. Also, in data set [3], the “self-cleavage kobs at 40 uM GlcN6P” value was determined as 3.14e-05 ± 7.7e-06 s⁻¹. The “self-cleavage kobs at 160 uM GlcN6P” value in data set [7] turned out to be 0.000119 ± 2.9e-05 s⁻¹. The “self-cleavage kobs at 640 uM GlcN6P” value in data set [4] was found to be 0.000312 ± 4.3e-05 s⁻¹. Also, the “self-cleavage kobs at 2500 uM GlcN6P” value in data set [5] is 0.000606 ± 0.0001 s⁻¹. For the same variant, in data set [6], the “self-cleavage kobs at 10000 uM GlcN6P” value was 0.00126 ± 0.00015 s⁻¹.
With G37U C50A, in data set [1], the catalytic constant (kcat) is less than 1e-05 s⁻¹. The “self-cleavage kobs at 640 uM GlcN6P” value in data set [4] is less than 1e-05 s⁻¹. The “self-cleavage kobs at 10000 uM GlcN6P” value in data set [6] was less than 1e-05 s⁻¹.
On to G38U C67U, for which, in data set [1], the kcat is less than 1e-05 s⁻¹.
For the variant A14G G32C, the catalytic constant (kcat) in data set [1] was found to be 0.000222 ± 9e-06 s⁻¹. Moreover, the KM in data set [2] stood at 1900 ± 190 µM. Also, the “self-cleavage kobs at 640 uM GlcN6P” value in data set [4] worked out at 5.72e-05 ± 1.5e-05 s⁻¹. Besides, in data set [5], the “self-cleavage kobs at 2500 uM GlcN6P” value turned out to be 0.000115 ± 4.1e-05 s⁻¹. The “self-cleavage kobs at 10000 uM GlcN6P” value in data set [6] is 0.000188 ± 2.8e-05 s⁻¹.
